Reference: US20080160035A1 (Regeneron, published 2008)
Substitutions are numbered along the chain they refer to.

T1: hIL-4R (human, UniProt P24394 26-232)
T1 construct: also called human IL-4 receptor; antigen
T1 sequence (looked up): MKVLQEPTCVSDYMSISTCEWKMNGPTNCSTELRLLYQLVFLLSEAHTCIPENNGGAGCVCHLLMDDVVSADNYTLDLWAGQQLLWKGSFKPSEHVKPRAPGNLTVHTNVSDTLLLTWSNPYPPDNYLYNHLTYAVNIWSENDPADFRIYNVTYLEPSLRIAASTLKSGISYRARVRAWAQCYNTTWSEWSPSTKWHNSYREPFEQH

T2: hIL-4R on cells (STAT6-transfected HEK293, TF1, TF1/A12) (human, UniProt P24394 26-825)
T2 sequence (looked up): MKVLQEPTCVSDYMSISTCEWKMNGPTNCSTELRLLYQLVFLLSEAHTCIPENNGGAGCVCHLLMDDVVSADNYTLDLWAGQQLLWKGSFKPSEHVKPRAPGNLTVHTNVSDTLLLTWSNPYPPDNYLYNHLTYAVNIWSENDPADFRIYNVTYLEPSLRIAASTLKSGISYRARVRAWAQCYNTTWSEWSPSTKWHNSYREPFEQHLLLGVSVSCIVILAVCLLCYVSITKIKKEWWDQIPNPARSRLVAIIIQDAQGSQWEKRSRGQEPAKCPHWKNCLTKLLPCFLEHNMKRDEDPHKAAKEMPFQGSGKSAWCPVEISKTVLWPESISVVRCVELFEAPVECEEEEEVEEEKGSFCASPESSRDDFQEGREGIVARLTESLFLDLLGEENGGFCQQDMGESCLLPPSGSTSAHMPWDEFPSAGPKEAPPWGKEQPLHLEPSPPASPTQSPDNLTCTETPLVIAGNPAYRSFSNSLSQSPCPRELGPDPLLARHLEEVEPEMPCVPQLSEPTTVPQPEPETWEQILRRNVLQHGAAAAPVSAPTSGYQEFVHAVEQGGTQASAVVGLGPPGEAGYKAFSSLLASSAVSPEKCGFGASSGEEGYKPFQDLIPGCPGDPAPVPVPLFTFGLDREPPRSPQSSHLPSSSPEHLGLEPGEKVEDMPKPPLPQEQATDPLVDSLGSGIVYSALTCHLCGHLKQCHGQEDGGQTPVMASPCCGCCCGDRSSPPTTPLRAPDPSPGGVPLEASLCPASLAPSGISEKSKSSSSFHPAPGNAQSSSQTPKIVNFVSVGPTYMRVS

T3: mouse IL-4R (mouse, UniProt P16382 26-233, limits assumed)
T3 sequence (looked up): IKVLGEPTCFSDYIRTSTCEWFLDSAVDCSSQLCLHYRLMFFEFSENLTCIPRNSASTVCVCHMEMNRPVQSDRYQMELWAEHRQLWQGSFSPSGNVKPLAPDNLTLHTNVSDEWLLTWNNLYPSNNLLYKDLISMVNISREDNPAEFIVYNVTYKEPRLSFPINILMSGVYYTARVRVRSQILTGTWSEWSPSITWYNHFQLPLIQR

T4: dimeric hIL-4R-hFc (human, UniProt P24394 26-232)
T4 construct: also called hIL-4R-Fc; not shown: human Fc (hFc)
T4 sequence: T1 sequence (looked up)

T5: monomeric hIL-4R (R&D Systems) (human, UniProt P24394 26-231)
T5 construct: Bought (R&D Systems); also called hIL-4R monomer
T5 sequence: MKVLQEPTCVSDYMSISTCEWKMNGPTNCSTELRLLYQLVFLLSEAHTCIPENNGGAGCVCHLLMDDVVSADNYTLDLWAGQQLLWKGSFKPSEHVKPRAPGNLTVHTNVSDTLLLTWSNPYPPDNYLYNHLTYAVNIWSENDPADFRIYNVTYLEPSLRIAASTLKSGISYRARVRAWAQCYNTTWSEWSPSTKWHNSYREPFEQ

B1: VAB 13A1-6 (antibody, V domains shown)
VH: EVQLVESGGGLVQPGRSLRLSCAASGFTFDNYAMHWVRQAPGKGLEWVSGIRWNSGSIGYADSVKGRFTISRDNAKNSLYLQMNSLRAEDTALYYCAKEGGYSGYRPGPFFDYWGQGTLVTVSS
VL: EIVMTQSPATLSVSPGERATLSCRASQSVNYNLAWYQHKPGQAPRLLIYGASTRATGIPARFSGSGSGTEFTLTISSLQSEDFAVYYCQQYNNWPLTFGGGTKVEIK
B2: VAK9C6-11 (antibody, V domains shown)
VH: QVQLVESGGGVVQPGRSLRLSCAASGFTFSSYGMHWVRQAPGKGLEWVTVISYDGSIKYYVDSVKGRFTISRDNSKNTLFLQMNSLRVEDTAVYYCAKEGRKYGMDVWGQGTTVTVSS
VL: DIQMTQSPSTLSASVGDRVTITCRASQIISSLLVWYQQKPGKAPKLLIYKASSLESGVPSRFSGSGSGTEFTLTISSLQPDDFATYYCQQYHSYMYTFGQGTKLEIK
notes: Apparently tested with mouse constant region (anti-mouse IgG capture/detection)
B3: VAK12B11-9 (antibody, V domains shown)
VH: QVQLVESGGGVVQPGRSLRLSCAASGFTFSSYAMYWVRQAPGKGLEWVAVISYDGSNKYYTDSVKGRFTVSRDNSKNTLFLQMNSLRAEDTALYYCAKESSSYGLDVWGQGTTVTVSS
VL: B2 VL with T20A, I28S, S31N, L32W, V34A, Y49S, E55K, T85A, H92N, M95S
notes: as for B2
B4: VAB 7B9-3 (antibody, V domains shown)
VH: QVQLVQSGAEVKKPGASVKVSCKDSAYTFNRYGISWVRQAPGQGLEWMGWISAYTGNTVYAQKLQGRVTMTTDNSTSTAYMELRSLRSDDTAVYYCARDKSIFGVVRGFDYWGQGTLVTVSS
VL: B1 VL with A9V, V13L, S22P, N30S, Y31S, N32S, H38Q, P40A, A43S, S77N
notes: as for B2
B5: VAK11D4-1 (antibody, V domains shown)
VH: QVRLVESGGGVVQPGRSLRLSCVASGFTFRSYGMHWVRQAPGRGLEWVAVISYDGSQTFYVDSVKVRFTISRDNSNNTLYLEMNSLRVDDTAVYFCVKEGRSGSWFDPWGQGTLVAVSS
VL: DIHMTQSPSSLSASVGDRVTITCRASQAINNYLAWFQQKPGRTPKSLIFATSSLQSGVPSRFSGSGSGTDFTLTISSLQPEDFATYYCQQYNSHPWTFGQGTKVEIK
notes: as for B2
B6: VAK10G12-5 (antibody, V domains shown)
VH: QVQLVESGGGVVQPGGSLRLSCAASGFTFSSYGMHWVRQAPGRGLEWVAVLSYDGSKEFYADSVKVRFTVSRDNSKNTLYLQMSSLRVEDTAIYFCAKEGRTGNWFDPWGQGTLVAVSS
VL: B5 VL with H3Q, Y32F, R42K, G66E
notes: as for B2
B7: VAK10G6-7 (antibody, V domains shown)
VH: B6 VH with G16R, A23T, Y32F, L51I, E58K, F59Y, V70I, S84N, E89D, I93V
VL: B5 VL with H3Q, R42K, S65T, K107R
notes: as for B2

Target: T1, hIL-4R
Test: screen of hybridoma conditioned media

binding result	Binder
binds	B1

Target: T2, hIL-4R on cells (STAT6-transfected …)
Test: cell-based or functional assay

STAT6 Bioassay IC50 (HEK293 STAT6 luciferase, 10 pM hIL-4) [nM]	TF1 Bioassay IC50 (proliferation, 50 pM hIL-4) [nM]	TF1/A12 Bioassay IC50 (proliferation, 20 pM hIL-4) [nM]	Binder
0.48	0.31	–	B2
0.49	0.57	–	B3
3.4	–	8.2	B4
0.2	0.2	–	B5
0.36	0.58	–	B6
0.11	0.23	–	B7

Target: T3, mouse IL-4R
Test: binding affinity test of Example 2 (method not restated)

binding result	Binder
no binding	B2
no binding	B3
no binding	B4
no binding	B5
no binding	B6
no binding	B7

Target: T4, dimeric hIL-4R-hFc
Test: SPR (BIAcore 2000); antibody captured, dimeric hIL-4R-hFc injected
Method: (§1) Binding affinity (KD) of selected antibodies with respect to hIL-4R was determined using a real-time biosensor surface plasmon resonance assay (BIAcore™ 2000). Briefly, antibody was captured on a goat anti-mouse (GAM) IgG polyclonal antibody surface created through direct chemical coupling of the GAM IgG to a BIAcore™ chip to form a captured antibody surface. […] Binding of antigen to antibody and dissociation of the bound complex, were monitored in real time. Equilibrium dissociation constants (KD) and dissociation rate constants were ascertained by performing kinetic analysis using BIA evaluation software. BIA evaluation software was also used to calculate the half-life of antigen/antibody complex dissociation (T_{1/2}). […] The binding affinity of anti-hIL-4R antibodies to either mouse or monkey (Macaca fascicularis) IL-4R was also tested.

Kd [pM]	T1/2 dimeric [h]	Binder
68	7	B2
36	12	B3
52	6.1	B4
6	21	B5
7	46	B6
11	24	B7

Target: T4, dimeric hIL-4R-hFc
Test: ELISA; antibody titrated against 25 pM hIL-4R-Fc, free receptor caught on hIL-4 plate
Method: Concentration of free hIL-4R-Fc (no antibody bound) was determined using a hIL-4R-specific sandwich ELISA. […] After a one-hour incubation at room temperature, the detection plate was washed and plate-bound hIL-4R-hFc was detected using HRP conjugated goat anti-hFc polyclonal antibodies and developed using colorimetric substrates such as BD OptEIA™ (BD Biosciences Pharmingen, San Diego, Calif.). After the reaction was stopped with 1 M phosphoric or sulfuric acid, absorbances at 450 nm were recorded and the data were analyzed using GraphPad™ Prism software.

IC50 [pM]	Binder
67	B2
99	B3
59	B4
35	B5
59	B6
37	B7

Target: T2, hIL-4R on cells (STAT6-transfected …)
Test: cell-based or functional assay
Remark: another data set of the same source

STAT6 Bioassay IC50 (HEK293 STAT6 luciferase, 40 pM hIL-13) [nM]	TF1 Bioassay IC50 (proliferation, 150 pM hIL-13) [nM]	Binder
0.3	1	B2
0.37	1.6	B3
1.1	–	B4
0.14	0.44	B5
0.26	1.9	B6
0.07	0.46	B7

Target: T5, monomeric hIL-4R (R&D Systems)
Test: SPR (BIAcore 2000); antibody captured, monomeric hIL-4R injected
Method: as §1

Kd [pM]	T1/2 monomeric [h]	Binder
2050	0.467	B2
410	2	B3
1010	0.217	B4
50	8	B5
90	6	B6
230	2.4	B7

Target: T4, dimeric hIL-4R-hFc
Test: SPR; reduction of hIL-4 (50 nM) binding to captured hIL-4R-hFc after antibody; competitor hIL-4
Description: Purified hIL-4R-hFc molecules were captured by goat anti-human IgG polyclonal antibody immobilized on CM-5 to a density of 260 RU, to prepare a receptor-coated surface.

% Inhibition (BIAcore) [%]	Binder
96	B2
96	B3
96	B4
95	B5
94	B6
95	B7
